Reference: doi:10.1101/2022.09.25.509378

Legend:
[1] = target: bacteriophage λ terminase protomer (TerL•TerS2) (bacteriophage λ) (UniProt P03708); assay: SAXS
[2] = target: bacteriophage λ terminase protomer (TerL•TerS2) (bacteriophage λ) (UniProt P03708); assay: native MS
[3] = target: bacteriophage λ terminase protomer (TerL•TerS2) (bacteriophage λ) (UniProt P03708); assay: AUC
[4] = target: bacteriophage λ terminase protomer (TerL•TerS2) (bacteriophage λ) (UniProt P03708); assay: AUC; remark: listed apart in the source
[5] = target: bacteriophage λ terminase protomer (TerL•TerS2) (bacteriophage λ) (UniProt P03708); assay: cryo-EM 2D class averages

bacteriophage λ terminase protomer (TerL•TerS2) (from UniProt P03708 1-641; P03707 1-181) (complex)
stoichiometry N [1]: 4.4 protomers
stoichiometry N [2]: 5 protomers
stoichiometry N [3]: 4.5 S
stoichiometry N [4]: 3.3 to 4.4 protomers
stoichiometry N [5]: 5
